Experimental data taken from PMC4855144, “Novel Coronin7 interactions with Cdc42 and N-WASP regulate actin organization and Golgi morphology” (Scientific Reports, 2016).

What was measured:
Assay in all cases: pull-down; Glutathione-Sepharose beads coated with GST alone or GST-GTPase fusions pre-loaded with GDP (DN) or GTPγS (CA), incubated with lysates of HEK293T cells expressing GFP-CRN7 WT or CRIB mutants; blot with GFP mAb K3-184-2 or anti-N-WASP; ImageJ quantification, input set at 100%
Conditions in all cases: one partner purified
[1] = target: T1, GST-Cdc42 dominant negative (DN/T17N), preloaded with GDP (UniProt P60953 1-191, T17N)
T1 construct: Preloaded with GDP; also called Cdc42DN; Cdc42 DN; source: E. coli BL21, purified (Glutathione Sepharose), held on glutathione-Sepharose beads
T1 sequence (P60953 whole entry T17N): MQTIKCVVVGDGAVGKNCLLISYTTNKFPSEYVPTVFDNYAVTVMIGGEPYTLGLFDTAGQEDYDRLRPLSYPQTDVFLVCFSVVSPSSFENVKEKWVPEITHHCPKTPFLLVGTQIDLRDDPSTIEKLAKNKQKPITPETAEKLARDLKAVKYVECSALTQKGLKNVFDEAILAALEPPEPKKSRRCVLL

[2] = target: GST-Rac1 constitutively active (CA/Q61L), preloaded with GTPγS (UniProt P63000 1-192, Q61L)
[3] = target: GST-Rac1 dominant negative (DN/T17N), preloaded with GDP (UniProt P63000 1-192, T17N)

- percent of input bound [1]: 65 % of input
- percent of input bound [2]: 7 % of input
- percent of input bound [3]: ~17 % of input
B1: GFP-CRN7 WT (human Coronin7, full length, GFP on its N-terminus) (natural protein, UniProt P57737 1-925, looked up)
chain: MNRFRVSKFRHTEARPPRRESWISDIRAGTAPSCRNHIKSSCSLIAFNSDRPGVLGIVPLQGQGEDKRRVAHLGCHSDLVTDLDFSPFDDFLLATGSADRTVKLWRLPGPGQALPSAPGVVLGPEDLPVEVLQFHPTSDGILVSAAGTTVKVWDAAKQQPLTELAAHGDLVQSAVWSRDGALVGTACKDKQLRIFDPRTKPRASQSTQAHENSRDSRLAWMGTWEHLVSTGFNQMREREVKLWDTRFFSSALASLTLDTSLGCLVPLLDPDSGLLVLAGKGERQLYCYEVVPQQPALSPVTQCVLESVLRGAALVPRQALAVMSCEVLRVLQLSDTAIVPIGYHVPRKAVEFHEDLFPDTAGCVPATDPHSWWAGDNQQVQKVSLNPACRPHPSFTSCLVPPAEPLPDTAQPAVMETPVGDADASEGFSSPPSSLTSPSTPSSLGPSLSSTSGIGTSPSLRSLQSLLGPSSKFRHAQGTVLHRDSHITNLKGLNLTTPGESDGFCANKLRVAVPLLSSGGQVAVLELRKPGRLPDTALPTLQNGAAVTDLAWDPFDPHRLAVAGEDARIRLWRVPAEGLEEVLTTPETVLTGHTEKICSLRFHPLAANVLASSSYDLTVRIWDLQAGADRLKLQGHQDQIFSLAWSPDGQQLATVCKDGRVRVYRPRSGPEPLQEGPGPKGGRGARIVWVCDGRCLLVSGFDSQSERQLLLYEAEALAGGPLAVLGLDVAPSTLLPSYDPDTGLVLLTGKGDTRVFLYELLPESPFFLECNSFTSPDPHKGLVLLPKTECDVREVELMRCLRLRQSSLEPVAFRLPRVRKEFFQDDVFPDTAVIWEPVLSAEAWLQGANGQPWLLSLQPPDMSPVSQAPREAPARRAPSSAQYLEEKSDQQKKEELLNAMVAKLGNREDPLPQDSFEGVDEDEWD
notes: Coronin7 (CRN7), human, wild type, full length; CRIB motifs at 116-130 (NT-CRIB) and 582-599 (CT-CRIB); also called full-length CRN7; source: HEK293T, transfected (PEI), in lysate; not shown: GFP, N-terminal, kept
